T1: sN-TALER IV-4 (synthetic)
T1 chain: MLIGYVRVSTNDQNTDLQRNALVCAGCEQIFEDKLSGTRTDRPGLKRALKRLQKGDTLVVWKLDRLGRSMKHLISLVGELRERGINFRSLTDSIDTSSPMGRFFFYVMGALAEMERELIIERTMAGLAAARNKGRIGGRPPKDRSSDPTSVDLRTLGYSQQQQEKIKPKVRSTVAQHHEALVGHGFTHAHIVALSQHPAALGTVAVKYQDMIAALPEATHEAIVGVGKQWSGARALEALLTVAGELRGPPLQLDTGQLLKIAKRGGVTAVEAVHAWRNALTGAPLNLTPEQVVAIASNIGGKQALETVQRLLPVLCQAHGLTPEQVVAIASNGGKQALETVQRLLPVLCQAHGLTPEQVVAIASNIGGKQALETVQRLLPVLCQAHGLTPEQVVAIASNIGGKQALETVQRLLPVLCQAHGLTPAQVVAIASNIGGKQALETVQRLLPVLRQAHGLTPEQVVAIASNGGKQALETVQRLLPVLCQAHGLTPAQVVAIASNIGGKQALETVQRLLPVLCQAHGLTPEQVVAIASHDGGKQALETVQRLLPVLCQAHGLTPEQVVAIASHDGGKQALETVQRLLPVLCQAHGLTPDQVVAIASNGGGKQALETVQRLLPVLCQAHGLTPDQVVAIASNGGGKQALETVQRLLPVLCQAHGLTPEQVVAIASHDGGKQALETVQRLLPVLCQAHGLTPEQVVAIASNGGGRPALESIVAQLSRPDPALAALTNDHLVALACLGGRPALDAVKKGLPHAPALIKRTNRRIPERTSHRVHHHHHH

T2: pN-TALER IV-14 (synthetic)
T2 chain: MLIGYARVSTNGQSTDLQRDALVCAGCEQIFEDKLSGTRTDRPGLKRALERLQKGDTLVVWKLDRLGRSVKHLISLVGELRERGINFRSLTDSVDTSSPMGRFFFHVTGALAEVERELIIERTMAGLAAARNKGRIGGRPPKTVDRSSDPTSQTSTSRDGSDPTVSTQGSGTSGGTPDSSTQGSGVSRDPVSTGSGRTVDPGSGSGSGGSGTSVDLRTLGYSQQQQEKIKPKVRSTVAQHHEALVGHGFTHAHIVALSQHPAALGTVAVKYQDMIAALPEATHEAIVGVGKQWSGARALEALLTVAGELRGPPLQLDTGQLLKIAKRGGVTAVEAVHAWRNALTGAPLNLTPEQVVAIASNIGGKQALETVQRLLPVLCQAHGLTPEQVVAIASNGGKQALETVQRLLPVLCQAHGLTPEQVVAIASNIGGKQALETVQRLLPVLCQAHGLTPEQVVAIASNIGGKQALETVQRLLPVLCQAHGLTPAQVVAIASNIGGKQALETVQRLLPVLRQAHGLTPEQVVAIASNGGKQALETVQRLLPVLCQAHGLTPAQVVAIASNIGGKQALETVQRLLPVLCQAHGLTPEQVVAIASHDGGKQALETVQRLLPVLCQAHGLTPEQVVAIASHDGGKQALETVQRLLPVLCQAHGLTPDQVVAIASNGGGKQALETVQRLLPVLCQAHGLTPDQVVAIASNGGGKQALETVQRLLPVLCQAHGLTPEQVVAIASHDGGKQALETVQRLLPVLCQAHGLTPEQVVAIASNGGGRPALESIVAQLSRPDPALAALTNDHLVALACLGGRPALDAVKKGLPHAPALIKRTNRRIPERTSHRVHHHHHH

T3: pN-TALER IV-5-EE2 (synthetic)
T3 chain: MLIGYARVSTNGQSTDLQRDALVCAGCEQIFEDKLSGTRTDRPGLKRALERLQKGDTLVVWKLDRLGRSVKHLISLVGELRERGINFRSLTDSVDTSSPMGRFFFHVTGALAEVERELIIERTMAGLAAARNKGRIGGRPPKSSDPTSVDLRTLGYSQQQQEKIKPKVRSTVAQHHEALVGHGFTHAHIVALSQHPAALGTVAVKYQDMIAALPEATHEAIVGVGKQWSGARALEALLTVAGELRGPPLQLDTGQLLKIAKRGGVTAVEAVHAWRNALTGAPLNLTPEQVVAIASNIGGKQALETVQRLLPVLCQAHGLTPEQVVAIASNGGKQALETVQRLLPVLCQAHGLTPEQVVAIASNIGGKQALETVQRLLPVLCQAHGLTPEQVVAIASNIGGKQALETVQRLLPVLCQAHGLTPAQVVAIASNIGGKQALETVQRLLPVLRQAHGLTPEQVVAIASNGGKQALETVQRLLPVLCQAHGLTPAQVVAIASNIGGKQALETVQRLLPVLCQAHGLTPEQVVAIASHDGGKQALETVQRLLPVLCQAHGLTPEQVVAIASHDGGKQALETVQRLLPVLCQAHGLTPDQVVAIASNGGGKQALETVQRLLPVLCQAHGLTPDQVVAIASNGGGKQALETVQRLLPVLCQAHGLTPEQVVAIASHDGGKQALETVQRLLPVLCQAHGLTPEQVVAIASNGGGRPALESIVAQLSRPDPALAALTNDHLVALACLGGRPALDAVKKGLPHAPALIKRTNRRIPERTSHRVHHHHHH

B1: Gin20TALE+0 (dsDNA)
DNA 1: AGAAGGTATTTATATCCAAAACCATGGTTTACAGTATAAATACCTTCT
DNA 2: AGAAGGTATTTATACTGTAAACCATGGTTTTGGATATAAATACCTTCT
B2: Gin18TALE+0 (dsDNA)
DNA 1: AGAAGGTATTTATACCAAAACCATGGTTTACATATAAATACCTTCT
DNA 2: AGAAGGTATTTATATGTAAACCATGGTTTTGGTATAAATACCTTCT

Legend:
Assay in all cases: cell_activity; E. coli
sN-TALER IV-4 = molecular target: T1, sN-TALER IV-4; settings: tags: 6-His
How it was run: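 DH5alpha cells co-transformed (heat shock or electroporation) with N-TALER expression and reporter plasmids at ~1:1 mass ratio; reporter alone as control. Plated on chloramphenicol/kanamycin/X-gal, grown 37° C. for 18 to 36 hours; recombination scored by colony colour.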

pN-TALER IV-14 = molecular target: T2, pN-TALER IV-14
Method: To test for recombination, E. coli DH5alpha cells were co-transformed with different combinations of TALER expression construct and TALER reporter construct pairs (Tables 6 and 7). The N-TALER expression and reporter constructs were in an approximate 1:1 mass ratio during the transformation. The co-transformed bacteria were plated on media with chloramphenicol, kanamycin, and X-gal then incubated at 37° C. for 18 to 36 hours. Control samples consisted of transformations using the reporter construct alone. Control transformants were similarly plated. The bacterial transformation protocol was either heat shock or electroporation per standard molecular biology techniques.
The N-TALER expression constructs representing the N-TALER chimeras with varying linker lengths were co-transformed with N-TALER reporter constructs with TALER central sequence lengths of 18, 20, 24, 30, 40, and 50 bp (Table 13). […] Recombination did occur, but was less efficient with the pN-TALER IV-14 (linker length of 71 amino acids) with each of the N-TALER reporters tested.

pN-TALER IV-5-EE2 = molecular target: T3, pN-TALER IV-5-EE2; settings: tags: 6-His

Binder	activity (sN-TALER IV-4) [score]	activity (pN-TALER IV-14) [score]	activity (pN-TALER IV-5-EE2) [score]
B1	1	3	1
B2	4	–	–
